Data published in patent US20240262791A1 (University of California, published 2024).
Like-named read-outs stand apart in the source and are kept apart here.

Experiments:
[1] = target: T1, Mutated SARS-CoV-2 (COVID-19) S protein (RBD) F490L (SARS-CoV-2, UniProt P0DTC2 319-537); assay: BLI, biotinylated SR4 on streptavidin sensor, spike RBD in solution, 1:1 fit
[2] = target: T2, Mutated SARS-CoV-2 (COVID-19) S protein (RBD) E484K (SARS-CoV-2, UniProt P0DTC2 319-537); assay: as above
[3] = target: T3, Mutated SARS-CoV-2 (COVID-19) S protein (RBD) N501Y (SARS-CoV-2, UniProt P0DTC2 319-537); assay: as above
T3 construct: also called N501Y: UK strain

[4] = target: T4, Mutated SARS-CoV-2 (COVID-19) S protein (RBD) N439K (SARS-CoV-2, UniProt P0DTC2 319-537); assay: as above
[5] = target: T5, Mutated SARS-CoV-2 (COVID-19) S protein (RBD), South African strain (K417N, E484K, N501Y) (SARS-CoV-2, UniProt P0DTC2 319-537); assay: as above
T5 construct: also called K417N, E484K, N501Y: South Africa strain; B.1.351 lineage

[6] = target: T6, Spike RBD, WT (Example 7, Tables 4 and 2) (SARS-CoV-2, UniProt P0DTC2 319-541); assay: as above
T6 construct: also called wildtype spike protein; Spike protein RBD

[7] = target: T5, Mutated SARS-CoV-2 (COVID-19) S protein …
[8] = target: T1, Mutated SARS-CoV-2 (COVID-19) S protein …; assay: BLI; KD column of Table 2 repeats Table 4
[9] = target: T2, Mutated SARS-CoV-2 (COVID-19) S protein …; assay: BLI; KD column of Table 2 repeats Table 4
[10] = target: T3, Mutated SARS-CoV-2 (COVID-19) S protein …; assay: BLI; KD column of Table 2 repeats Table 4
[11] = target: T4, Mutated SARS-CoV-2 (COVID-19) S protein …; assay: BLI; KD column of Table 2 repeats Table 4
[12] = target: T5, Mutated SARS-CoV-2 (COVID-19) S protein …; assay: BLI; KD column of Table 2 repeats Table 4
[13] = target: T6, Spike RBD, WT (Example 7, Tables 4 and …); assay: BLI; KD column of Table 2 repeats Table 4

B1: Biotinylated SR4 (SR4 (5AzF) reacted with DBCO-biotin) (VHH)
VHH: QVQLVESGGGLVQAGGSLRLSCAASGFPVYSWNMWWYRQAPGKEREWVAAIESHGDSTRYADSVKGRFTISRDNAKNTVYLQMNSLKPEDTAVYYCYVWVGHTYYGQGTQVTVSA
notes: also called SR4 nanobody; biotin labeled SR4
In the case of B1, the Kd [1] is reported as 0.042 µM, the koff [1] is reported as 0.00476 s⁻¹ and the kon [1] is reported as 113000 M⁻¹ s⁻¹. The Kd [2] was 0.0318 µM, the koff [2] was 0.0034 s⁻¹ and the kon [2] was 107000 M⁻¹ s⁻¹. For the same binder, the Kd [3] was 0.0305 µM, the koff [3] was 0.0027 s⁻¹ and the kon [3] was 88600 M⁻¹ s⁻¹. For the same binder, the Kd [4] was 0.0593 µM, the koff [4] was 0.00595 s⁻¹ and the kon [4] was 100000 M⁻¹ s⁻¹. The Kd [5] was 0.057 µM, the koff [5] was 0.00406 s⁻¹ and the kon [5] was 70800 M⁻¹ s⁻¹. It also gave a Kd [6] of 0.0179 µM, a koff [6] of 0.00226 s⁻¹ and a kon [6] of 126000 M⁻¹ s⁻¹. For the same binder, the Kd [7] was 0.0574 µM, the Kd [8] was 0.042 µM and the Kd [9] was 0.0318 µM. It also gave a Kd [10] of 0.0305 µM, a Kd [11] of 0.0593 µM and a Kd [12] of 0.057 µM. The Kd [13] was 0.0179 µM.
